Results reported in PMC8873925.

Legend:
Test in all cases: ITC
CSTF2 RRM D50A = target: T1, CSTF2 RRM D50A (Homo sapiens, UniProt P33240 1-107, D50A)
T1 sequence: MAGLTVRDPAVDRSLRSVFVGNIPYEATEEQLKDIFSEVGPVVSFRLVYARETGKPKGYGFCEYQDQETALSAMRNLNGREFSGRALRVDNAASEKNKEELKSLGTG

[1] = target: T2, CSTF2 (CstF-64) RRM wild-type (Homo sapiens, UniProt P33240 1-107)
T2 sequence: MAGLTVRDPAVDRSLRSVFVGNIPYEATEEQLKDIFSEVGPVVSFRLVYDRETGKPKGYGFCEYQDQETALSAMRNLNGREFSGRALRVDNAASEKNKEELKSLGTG

CSTF2 RRM D90I = target: T3, CSTF2 RRM D90I (Homo sapiens, UniProt P33240 1-107, D90I)
T3 sequence: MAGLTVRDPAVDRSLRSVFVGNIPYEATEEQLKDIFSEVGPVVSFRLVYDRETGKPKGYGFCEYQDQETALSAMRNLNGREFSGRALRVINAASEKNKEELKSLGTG

CSTF2 RRM K96E = target: T4, CSTF2 RRM K96E (Homo sapiens, UniProt P33240 1-107, K96E)
T4 sequence: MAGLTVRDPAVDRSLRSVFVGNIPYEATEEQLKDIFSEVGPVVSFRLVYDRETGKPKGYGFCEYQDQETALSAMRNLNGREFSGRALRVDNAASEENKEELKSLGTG

CSTF2 RRM E26A = target: T5, CSTF2 RRM E26A (Homo sapiens, UniProt P33240 1-107, E26A)
T5 sequence: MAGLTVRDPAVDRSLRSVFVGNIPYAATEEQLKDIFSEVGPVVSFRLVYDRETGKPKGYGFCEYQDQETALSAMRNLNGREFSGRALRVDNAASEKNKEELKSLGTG

CSTF2 RRM A93E = target: T6, CSTF2 RRM A93E (Homo sapiens, UniProt P33240 1-107, A93E)
T6 sequence: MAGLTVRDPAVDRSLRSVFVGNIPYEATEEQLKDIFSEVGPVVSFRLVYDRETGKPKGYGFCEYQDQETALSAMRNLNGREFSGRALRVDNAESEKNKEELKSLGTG

CSTF2 RRM F45A = target: T7, CSTF2 RRM F45A (Homo sapiens, UniProt P33240 1-107, F45A)
T7 sequence: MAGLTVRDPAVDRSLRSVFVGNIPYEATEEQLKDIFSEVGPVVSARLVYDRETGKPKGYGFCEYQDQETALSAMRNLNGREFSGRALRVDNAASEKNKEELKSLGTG

CSTF2 RRM K98E = target: T8, CSTF2 RRM K98E (Homo sapiens, UniProt P33240 1-107, K98E)
T8 sequence: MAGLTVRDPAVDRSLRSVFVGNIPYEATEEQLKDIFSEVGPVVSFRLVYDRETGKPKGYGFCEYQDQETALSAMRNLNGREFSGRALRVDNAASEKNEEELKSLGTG

CSTF2 RRM D90K = target: T9, CSTF2 RRM D90K (Homo sapiens, UniProt P33240 1-107, D90K)
T9 sequence: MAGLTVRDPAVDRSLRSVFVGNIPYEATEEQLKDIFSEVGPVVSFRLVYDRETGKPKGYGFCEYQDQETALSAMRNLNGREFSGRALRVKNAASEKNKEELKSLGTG

AUUUUAUGUUUCAGGU (ssRNA) [SVL RNA] gave a Kd (CSTF2 RRM D50A) of 698 ± 60 nM, a Kd [1] of 1520 ± 170 nM and a Kd (CSTF2 RRM D90I) of 1260 ± 330 nM. The Kd (CSTF2 RRM K96E) was 38.7 ± 4.2 µM, the Kd (CSTF2 RRM E26A) was 520 ± 10 nM and the Kd (CSTF2 RRM A93E) was 3.88 ± 0.77 µM. It also gave a Kd (CSTF2 RRM F45A) of 1010 ± 50 nM, a Kd (CSTF2 RRM K98E) of 8.7 ± 0.11 µM and a Kd (CSTF2 RRM D90K) of 608 ± 10 nM.
